Changes are numbered by the printed parent chain.
B1: SR-AB62: cycle 3 light chain-optimized antibody, lineage SR-AB24; CDRs SEQ ID NO: 286-291 (antibody, V domains shown)
VH: QLQLQESGPGLAKPSETLSLTCTVSGGSIRSSSYYWGWIRQPPGKGLEWIGSISYSATTYYNPSLKSRVTISVDTSKNQFSLKLSSVTAADTAVYYCASDPSYDSAAGMDVWGQGTTVTVSS
VL: DIQMTQSPSSLSASVGDRVTITCRASKVISSYLNWYQQKPGKAPKLLIYYASSLQSGVPSRFSGSGSGTDFTLTISSLQPEDFATYYCQQSNDWPFTFGGGTKVEIK
B2: SR-AB64: cycle 3 light chain-optimized antibody, lineage SR-AB26; CDRs SEQ ID NO: 298-303 (antibody, V domains shown)
VH: B1 VH with A12V, S99G, A106I, D110Q
VL: B1 VL with K27Q, V28S, S31Y, Y50S, L54R, S91G, N92F, W94F, F96L
B3: SR-AB40: cycle 3 light chain-optimized antibody, lineage SR-AB23; CDRs SEQ ID NO: 154-159 (antibody, V domains shown)
VH: QVQLVESGGGVVQPGRSLRLSCAASGFTFRSYVMHWVRQAPGKGLEWVAVISHEGSLKYYADSVKGRFTISRDNSKNTLYLQMNSLRAEDTAVYYCARPRIAARRGGFGYWGQGTLVTVSS
VL: NFMLTQPHSVSESPGKTVTISCTRSSGNIDNNYVQWYQQRPGSSPTTVIYEDNQRPSGVPDRFSGSIDSSSNSASLTISGLKTEDEADYYCQSYDYSNQGVVFGGGTKLTVL
B4: SR-AB49 Fab (antibody, V domains shown)
VH: B3 VH with L57G, Y110S
VL: B3 VL with N31Y, Q54V, S93G, Y96W, S97D, N98T
B5: SR-AB51 Fab (antibody, V domains shown)
VH: B3 VH with L57G, Y110T
VL: B3 VL with N31Y, Q54V, S97D, G100A
B6: SR-AB52 Fab (antibody, V domains shown)
VH: B3 VH with L57G, Y110T
VL: B3 VL with N31Y, Q54V, S97D, N98T
B7: SR-AB54 Fab (antibody, V domains shown)
VH: B3 VH with L57G, R98L, Y110S
VL: B3 VL with N31Y, Q54V, Y96S, S97D, G100R
B8: SR-AB53 Fab (antibody, V domains shown)
VH: B3 VH with L57G, Y110T
VL: B3 VL with N31Y, Q54V, S93G, Y96W, S97D, N98T
B9: SR-Ab56 Fab (antibody, V domains shown)
VH: B3 VH with L57G, R98L, Y110S
VL: B3 VL with N31Y, Q54V, S97D, N98T
B10: SR-AB59 Fab (antibody, V domains shown)
VH: B3 VH with L57G, R98L, Y110T
VL: B3 VL with N31Y, Q54V, S97D, G100A
B11: SR-AB57 Fab (antibody, V domains shown)
VH: B3 VH with L57G, R98L, Y110S
VL: B3 VL with N31Y, Q54V, S93G, Y96W, S97D, N98T
B12: SR-AB48 Fab (antibody, V domains shown)
VH: B3 VH with L57G, Y110S
VL: B3 VL with N31Y, Q54V, S97D, N98T
B13: SR-AB60 Fab (antibody, V domains shown)
VH: B3 VH with L57G, R98L, Y110T
VL: B3 VL with N31Y, Q54V, S97D, N98T
B14: SR-AB58 Fab (antibody, V domains shown)
VH: B3 VH with L57G, R98L, Y110T
VL: B3 VL with N31Y, Q54V, Y96S, S97D, G100R
B15: SR-AB55 Fab (antibody, V domains shown)
VH: B3 VH with L57G, R98L, Y110S
VL: B3 VL with N31Y, Q54V, S97D, G100A
B16: SR-AB42 Fab (antibody, V domains shown)
VH: B3 VH
VL: B3 VL with S97D, N98T
B17: SR-AB23 Fab (antibody, V domains shown)
VH: B3 VH
VL: B3 VL with Y96S, S97D
B18: SR-AB50 Fab (antibody, V domains shown)
VH: B3 VH with L57G, Y110T
VL: B3 VL with N31Y, Q54V, Y96S, S97D, G100R
B19: SR-AB47 Fab (antibody, V domains shown)
VH: B3 VH with L57G, Y110S
VL: B3 VL with N31Y, Q54V, S97D, G100A

target: huGARP proTGFβ1 (Homo sapiens, UniProt P01137); assay: Octet (BLI) binding, IgG captured on AHC tips, antigen at 100 nM; settings: Table 9; cycle 3; IgG1-agly; 1:1 fit; N.B. = non-binder under conditions of this assay
Sequence (P01137 30-390): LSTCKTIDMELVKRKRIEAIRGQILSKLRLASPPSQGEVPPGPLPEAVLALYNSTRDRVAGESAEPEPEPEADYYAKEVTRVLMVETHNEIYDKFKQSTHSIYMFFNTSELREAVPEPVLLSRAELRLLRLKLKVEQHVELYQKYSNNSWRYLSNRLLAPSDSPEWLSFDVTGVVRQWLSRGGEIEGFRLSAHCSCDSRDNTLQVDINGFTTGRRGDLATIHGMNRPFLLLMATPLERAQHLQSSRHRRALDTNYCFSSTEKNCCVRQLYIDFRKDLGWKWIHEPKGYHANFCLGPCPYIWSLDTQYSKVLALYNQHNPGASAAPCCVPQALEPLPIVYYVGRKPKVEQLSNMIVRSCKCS
Sequence (Q14392 18-627 partner limits assumed): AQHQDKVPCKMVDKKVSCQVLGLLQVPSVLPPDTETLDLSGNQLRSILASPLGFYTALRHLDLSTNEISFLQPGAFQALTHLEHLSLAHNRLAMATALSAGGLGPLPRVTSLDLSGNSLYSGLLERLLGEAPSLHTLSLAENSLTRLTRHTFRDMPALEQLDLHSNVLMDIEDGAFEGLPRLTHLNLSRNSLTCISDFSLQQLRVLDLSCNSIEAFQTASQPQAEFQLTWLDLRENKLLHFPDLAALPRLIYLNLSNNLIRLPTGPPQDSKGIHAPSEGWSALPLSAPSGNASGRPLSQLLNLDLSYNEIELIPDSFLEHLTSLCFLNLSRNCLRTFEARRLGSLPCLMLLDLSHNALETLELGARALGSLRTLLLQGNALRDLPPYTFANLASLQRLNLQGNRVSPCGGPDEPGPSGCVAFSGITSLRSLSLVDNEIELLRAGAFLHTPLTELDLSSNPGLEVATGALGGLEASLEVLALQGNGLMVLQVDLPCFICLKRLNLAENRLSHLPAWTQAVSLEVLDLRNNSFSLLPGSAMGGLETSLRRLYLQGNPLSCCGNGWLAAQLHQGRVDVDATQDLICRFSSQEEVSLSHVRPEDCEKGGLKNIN
Protocol: (§1) Suitable methods for in vitro binding assays to determine the parameters of binding kinetics include Bio-layer Interferometry (BLI)-based assays such as Octet, and surface plasmon resonance (SPR)-based assays, such as Biacore systems (see, for example: biophysics.bioc.cam.ac.uk/wp-content/uploads/2011/02/Biacore_assay_handbook.pdf).
(§2) The affinity of SR-AB10, SR-AB2 and SR-AB13 was measured by Octet assay. The protocol used to measure the affinity of the antibodies to the complexes provided herein is summarized below.
(§3) • 96 well black polypropylene plates • AHC Octet tips (anti-human IgG Fc capture tips) (FortdBio) • 10× kinetics buffer (FortdBio) (diluted to 1× in PBS) • reiner Bio-One 96-Well Half Area Microplates (VWR cat #82050-044) Procedure:
(§4) Notes: The volume within each well during an Octet experiment is 100 uL.
(§5) A shake speed of 1000 rpm is used for all assay steps.
(§6) Pre-Wet Tips: • Biosensors must be pre-wet in 1× kinetics buffer (lx KB) for at least 10 minutes before starting an experiment. This can be done inside the Octet or on the bench.
(§7) Loading: • Tips are baselined in 1× KB for 1 minute before loading. • AHC tips are loaded with antibody at a concentration of 1 μg/mL (˜7 nM) for 3 minutes. A limit is set so that loading will stop when any one sensor reaches a response of 1 nanometer. • Tips are baselined in buffer for 1 minute after loading. The antibody should not dissociate from the tips during this time.
(§8) Antigen Association: • TGFβ1 in complex with various presentation molecules was associated to the immobilized antibodies at a single concentration of 100 nM in 1× KB.
(§9) Antibody Dissociation: • Dissociation in 1×KB was performed for 3 minutes.
(§10) Data Analysis using ForteBio Data analysis software 8.2: • Processing: align Y axis to last 5 seconds of baseline, perform inter-step correction with align to dissociation, and perform Savitzky-Golay filtering. • Analysis: 1:1 fitting model is utilized. Fitting is local and full. […] Results:
(§11) LTBP complex-specific antibodies from the first round of affinity maturation/optimization (SR-AB14, SR-AB16, SR-AB17, SR-AB18, SR-AB19) were selected for a second round of affinity maturation/optimization (i.e., CDR-H3 mutagenesis as described herein) and particular progeny antibodies (SR-AB20, SR-AB21, SR-AB22, SR-AB23, SR-AB24, SR-AB25, SR-AB26, SR-AB27, SR-AB28, and SR-AB29) were assessed for their ability to bind various proTGFβl constructs. Binding affinities of the optimized antibodies were measured by Octet against human LTBP1-proTGFβI, human LTBP3-proTGFb1, mouse LTBP1-proTGFβ1, mouse LTBP3-proTGFb1, and GARP-proTGFβl complexes, essentially as described in Example 6. In brief, test antibodies were immobilized to the surface of anti-human Fc capture biosensors (AHC) (ForteBio®) and binding was then tested against the various TGFβ1 complexes at a single concentration of 100 nM to assess binding affinities. The antigens were allowed to associate for 3 minutes followed by a 5-minute dissociation. Kinetics buffer (ForteBio®) was used throughout the experiment, and KD was determined using a 1:1 fitting model for each antibody antigen pair.
(§12) Binding affinities of the optimized antibodies were measured by Octet against human LTBP1-proTGFβ1, human LTBP3-proTGFβ1, mouse LTBP1-proTGFβ1, mouse LTBP3-proTGFβ1, and GARP-proTGFβ1 complexes, essentially as described in Example 6. In brief, test antibodies were immobilized to the surface of anti-human Fc capture biosensors (AHC) (ForteBio®) and binding was then tested against the various TGFβ1 complexes at a single concentration of 100 nM to assess binding affinities. The antigens were allowed to associate for 3 minutes followed by a 5-minute dissociation. Kinetics buffer (ForteBio®) was used throughout the experiment, and KD was determined using a 1:1 fitting model for each antibody antigen pair. […]

ForteBio IgG KD Hu GARP-proTGFβ1 (M) Avid	Molecule
N.B.	B1
N.B.	B2
N.B.	B3

same assay, conditions: Table 10; same assay conditions as Table 9; N.B. = non-binder under conditions of this assay

ForteBio IgG KD Hu GARP-proTGFβ1 in solution (M) Avid	Molecule
N.B.	B1
N.B.	B2
N.B.	B3

target: huLTBP1 proTGFβ1 (Homo sapiens, UniProt P01137+Q14766); assay: as above; settings: Table 9; cycle 3; IgG1-agly; 1:1 fit
Sequence (P01137 30-390): as the sequence (P01137 30-390) above
Sequence (Q14766 347-1721 limits assumed): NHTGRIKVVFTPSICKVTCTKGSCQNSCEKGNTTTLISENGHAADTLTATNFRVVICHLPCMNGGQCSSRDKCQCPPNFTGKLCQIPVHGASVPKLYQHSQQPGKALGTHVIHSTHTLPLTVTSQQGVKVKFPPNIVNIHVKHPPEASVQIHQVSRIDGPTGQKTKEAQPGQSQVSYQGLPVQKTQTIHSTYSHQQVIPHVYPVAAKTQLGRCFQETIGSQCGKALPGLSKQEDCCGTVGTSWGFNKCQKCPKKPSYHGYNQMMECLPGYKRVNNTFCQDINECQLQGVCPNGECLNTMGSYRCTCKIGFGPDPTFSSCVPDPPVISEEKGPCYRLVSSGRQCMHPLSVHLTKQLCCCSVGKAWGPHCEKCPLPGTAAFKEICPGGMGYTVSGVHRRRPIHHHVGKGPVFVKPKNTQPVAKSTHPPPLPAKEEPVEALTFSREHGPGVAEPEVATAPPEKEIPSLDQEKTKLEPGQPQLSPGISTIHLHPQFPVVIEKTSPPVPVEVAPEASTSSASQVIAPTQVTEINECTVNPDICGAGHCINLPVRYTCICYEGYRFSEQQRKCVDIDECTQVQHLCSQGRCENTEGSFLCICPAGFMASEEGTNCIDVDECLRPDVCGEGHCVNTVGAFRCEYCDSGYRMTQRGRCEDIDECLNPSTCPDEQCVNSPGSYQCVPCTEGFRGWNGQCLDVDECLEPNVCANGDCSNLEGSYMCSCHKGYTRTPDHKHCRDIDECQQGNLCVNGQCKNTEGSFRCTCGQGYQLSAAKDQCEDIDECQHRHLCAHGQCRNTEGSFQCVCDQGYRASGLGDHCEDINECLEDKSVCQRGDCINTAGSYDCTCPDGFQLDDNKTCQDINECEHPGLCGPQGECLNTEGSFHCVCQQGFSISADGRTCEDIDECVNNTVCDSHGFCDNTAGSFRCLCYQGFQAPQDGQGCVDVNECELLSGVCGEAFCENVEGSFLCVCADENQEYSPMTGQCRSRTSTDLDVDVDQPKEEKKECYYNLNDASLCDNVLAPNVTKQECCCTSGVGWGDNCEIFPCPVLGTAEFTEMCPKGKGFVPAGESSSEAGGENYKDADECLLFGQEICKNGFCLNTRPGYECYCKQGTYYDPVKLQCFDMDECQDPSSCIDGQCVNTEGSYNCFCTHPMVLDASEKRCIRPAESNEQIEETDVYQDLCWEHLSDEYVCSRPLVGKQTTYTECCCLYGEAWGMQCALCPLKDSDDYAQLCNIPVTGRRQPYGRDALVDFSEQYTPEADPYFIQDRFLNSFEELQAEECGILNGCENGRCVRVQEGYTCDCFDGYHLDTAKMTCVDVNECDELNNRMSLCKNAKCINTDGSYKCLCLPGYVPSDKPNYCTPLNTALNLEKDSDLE
Protocol: as §1, §2, §3, §4, §5, §6, §7, §8, §9, §10, §11, §12

Hu LTBP1-proTGFβ1 Kon	Molecule
140000 M⁻¹ s⁻¹	B1
150000 M⁻¹ s⁻¹	B3

same assay, conditions: Table 9; cycle 3; IgG1-agly; 5-minute dissociation

Hu LTBP1-proTGFβ1 Koff	Molecule
6.82e-05 s⁻¹	B1
6e-05 s⁻¹	B3

target: huLTBP3 proTGFβ1 (Homo sapiens, UniProt P01137+Q9NS15); assay: as above; settings: Table 9; cycle 3; IgG1-agly; 1:1 fit
Sequence (P01137 30-390): as the sequence (P01137 30-390) above
Sequence (Q9NS15 44-1303): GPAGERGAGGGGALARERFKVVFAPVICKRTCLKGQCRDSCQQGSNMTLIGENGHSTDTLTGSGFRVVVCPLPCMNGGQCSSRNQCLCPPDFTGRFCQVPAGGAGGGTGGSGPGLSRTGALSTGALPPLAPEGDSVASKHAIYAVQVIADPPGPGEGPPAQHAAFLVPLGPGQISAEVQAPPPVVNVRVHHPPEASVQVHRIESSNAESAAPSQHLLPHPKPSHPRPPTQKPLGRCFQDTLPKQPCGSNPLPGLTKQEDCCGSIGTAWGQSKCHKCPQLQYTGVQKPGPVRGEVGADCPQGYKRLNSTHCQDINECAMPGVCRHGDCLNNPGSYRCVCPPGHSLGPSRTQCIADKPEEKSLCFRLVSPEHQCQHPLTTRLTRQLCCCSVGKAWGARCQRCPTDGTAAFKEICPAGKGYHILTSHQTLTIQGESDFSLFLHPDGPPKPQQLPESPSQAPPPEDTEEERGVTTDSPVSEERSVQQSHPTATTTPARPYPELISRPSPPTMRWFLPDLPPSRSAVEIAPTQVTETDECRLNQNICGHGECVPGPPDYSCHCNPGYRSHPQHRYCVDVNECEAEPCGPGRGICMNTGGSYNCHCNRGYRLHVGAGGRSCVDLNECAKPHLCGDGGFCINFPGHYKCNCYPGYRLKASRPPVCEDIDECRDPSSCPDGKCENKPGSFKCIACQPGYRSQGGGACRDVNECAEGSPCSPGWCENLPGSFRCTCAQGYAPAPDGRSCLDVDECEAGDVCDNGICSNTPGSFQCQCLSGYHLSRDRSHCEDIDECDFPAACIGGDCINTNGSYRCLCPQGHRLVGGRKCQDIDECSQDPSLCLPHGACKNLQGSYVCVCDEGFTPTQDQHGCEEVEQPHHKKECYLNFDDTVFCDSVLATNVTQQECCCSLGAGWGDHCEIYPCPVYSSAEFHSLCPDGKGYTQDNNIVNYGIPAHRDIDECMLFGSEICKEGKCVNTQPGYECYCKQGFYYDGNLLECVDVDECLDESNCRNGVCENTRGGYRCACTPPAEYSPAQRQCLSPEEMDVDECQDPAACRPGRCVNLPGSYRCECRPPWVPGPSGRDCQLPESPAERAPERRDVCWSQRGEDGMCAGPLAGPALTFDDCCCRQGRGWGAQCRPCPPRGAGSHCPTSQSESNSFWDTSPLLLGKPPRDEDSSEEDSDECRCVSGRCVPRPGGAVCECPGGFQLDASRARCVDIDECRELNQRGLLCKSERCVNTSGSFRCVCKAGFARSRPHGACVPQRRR
Protocol: as §1, §2, §3, §4, §5, §6, §7, §8, §9, §10, §11
Binding affinities of the optimized antibodies were measured by Octet against human LTBP1-proTGFβ1, human LTBP3-proTGFβ1, mouse LTBP1-proTGFβ1, mouse LTBP3-proTGFβ1, and GARP-proTGFβ1 complexes, essentially as described in Example 6. In brief, test antibodies were immobilized to the surface of anti-human Fc capture biosensors (AHC) (ForteBio®) and binding was then tested against the various TGFβ1 complexes at a single concentration of 100 nM to assess binding affinities. The antigens were allowed to associate for 3 minutes followed by a 5-minute dissociation. Kinetics buffer (ForteBio®) was used throughout the experiment, and KD was determined using a 1:1 fitting model for each antibody antigen pair.

Hu LTBP3-proTGFβ1 Kon	Molecule
203000 M⁻¹ s⁻¹	B1
195000 M⁻¹ s⁻¹	B2
182000 M⁻¹ s⁻¹	B3

same assay, conditions: Table 9; cycle 3; IgG1-agly; 5-minute dissociation

Hu LTBP3-proTGFβ1 Koff	Molecule
7.47e-05 s⁻¹	B1
9.18e-05 s⁻¹	B2
6.07e-05 s⁻¹	B3

system: proTGFβ1 presented by endogenous LTBP1/3 in LN229 cells; assay: Endogenous LTBP caga assay: LN229 cells transfected with human proTGFβ1 only, CAGA12 luciferase reporter cells; type: cell-based; settings: Table 20: protocol of Example 10 with Fabs (RefAb also as hIgG4), assay format not stated
Sequence (P01137 30-390): as the sequence (P01137 30-390) above

IC50	Molecule
1.02 nM	B4
0.535 nM	B5
0.459 nM	B6
5.87 nM	B7
1.18 nM	B8
0.439 nM	B9
0.195 nM	B10
0.775 nM	B11
0.523 nM	B12
0.742 nM	B13
4.86 nM	B14
0.536 nM	B15
0.667 nM	B16
8.53 nM	B17
11 nM	B18
0.186 nM	B19

From US11214614B2, “LTBP complex-specific inhibitors of TGFβ and uses thereof” (Scholar Rock, Inc., priority 2019, dated 2022)
